Measurements reported in patent US20090149339A1 (published 2009).
Ends that are not written are not given here. * marks the point of attachment. Biotin = O=C1N[C@H]2[C@H](CS[C@H]2CCCCC(=O)*)N1

Columns and labels:
[1] = molecular target: T1, GST-NeDLG PDZ domain fusion protein (presynaptic protein sao102, neuroendocrine-dlg; PDZ domains 1-2 of 3) (UniProt P08515 1-218 = GST); assay: A assay
T1 construct: also called NeDLG1

[2] = molecular target: GST-NOS1 PDZ domain fusion protein (human neuronal nitric oxide synthase; PDZ domain 1 of 1) (human, UniProt P08515 1-218 = GST); assay: A/G assays
[3] = molecular target: GST-PTN-4 PDZ domain fusion protein (protein-tyrosine phosphatase meg1 AA774-862; PDZ domain 1 of 1) (UniProt P08515 1-218 = GST); assay: A/G assays
[4] = molecular target: T2, GST-SYN1a PDZ domain fusion protein (alpha1-syntrophin AA96-189; PDZ domain 1 of 1) (UniProt P08515 1-218 = GST); assay: A/G assays
T2 construct: also called SYN 1 alpha; SYNTR 1 alpha

[5] = molecular target: T3, GST-KIAA0303 PDZ domain fusion protein (KIAA0303 AA652-742; PDZ domain 1 of 1) (UniProt P08515 1-218 = GST); assay: A/G assays
T3 construct: also called K303

[6] = molecular target: T4, GST-CBP PDZ domain fusion protein (Cytohesin binding protein HE AA85-175; PDZ domain 1 of 1) (UniProt P08515 1-218 = GST); assay: A/G assays
T4 construct: also called Prot

[7] = molecular target: T5, GST-PSD95 PDZ domain fusion protein (human post-synaptic density protein 95 AA387-724; PDZ domains 1-3 of 3) (human, UniProt P08515 1-218 = GST); assay: A/G assays
[8] = molecular target: GST-LIMK2 PDZ domain fusion protein (human LIM domain kinase 2 AA185-275; PDZ domain 1 of 1) (human, UniProt P08515 1-218 = GST); assay: A/G assays
[9] = molecular target: T6, GST-TAX40 PDZ domain fusion protein (human tax interaction protein 40 AA35-137; PDZ domain 1 of 1) (human, UniProt P08515 1-218 = GST); assay: A/G assays
T6 construct: also called TX 40

[10] = molecular target: T7, GST-TAX43 PDZ domain fusion protein (human tax interaction protein 43 AA15-85; PDZ domain 1 of 1) (human, UniProt P08515 1-218 = GST); assay: A/G assays
T7 construct: also called TX 43

[11] = molecular target: T8, GST-TAX2 PDZ domain fusion protein (human tax interaction protein 2 AA54-140; PDZ domain 1 of 1) (human, UniProt P08515 1-218 = GST); assay: A/G assays
T8 construct: also called TX 2

[12] = molecular target: GST-prIL16 PDZ domain fusion protein (putative interleukin 16 precursor AA170-383; PDZ domains 1-2 of 2) (UniProt P08515 1-218 = GST); assay: A/G assays
[13] = molecular target: T9, GST-41.8 kD PDZ domain fusion protein (hypothetical 41.8 kD protein AA4-85; PDZ domain 1 of 1) (UniProt P08515 1-218 = GST); assay: A/G assays
T9 construct: also called hypoth

[14] = molecular target: T10, GST-CASK PDZ domain fusion protein (CASK AA495-584; PDZ domain 1 of 1) (mouse, UniProt P08515 1-218 = GST); assay: A/G assays
T10 construct: also called mCASK

[15] = molecular target: T11, GST-TAX33 PDZ domain fusion protein (tax interaction protein 33 AA73-162; PDZ domain 1 of 1) (UniProt P08515 1-218 = GST); assay: A/G assays
T11 construct: also called TX33

[16] = molecular target: T12, GST-MPP2 PDZ domain fusion protein (maguk p55 subfamily member 2 (DLG2) AA185-273; PDZ domain 1 of 1) (UniProt P08515 1-218 = GST); assay: A/G assays
T12 construct: also called MMP2

[17] = molecular target: T13, GST-RGS12 PDZ domain fusion protein (human regulator of G-protein signalling 12 AA35-103; PDZ domain 1 of 1) (human, UniProt P08515 1-218 = GST); assay: A/G assays
T13 construct: also called RSG12

[18] = molecular target: GST-TIAM1 PDZ domain fusion protein (T-lymphoma invasion and metastasis inducing protein 1 AA1001-1088); PDZ 1 … (UniProt P08515 1-218 = GST); assay: A/G assays
[19] = molecular target: T14, GST-KIAA0316 PDZ domain fusion protein (KIAA0316 AA197-284; PDZ domain 1 of 1) (UniProt P08515 1-218 = GST); assay: A/G assays
T14 construct: also called K316

[20] = molecular target: GST-MINT3 PDZ domain fusion protein (human MINT3 AA11-52; PDZ domain 1 of 1) (human, UniProt P08515 1-218 = GST); assay: A/G assays
[21] = molecular target: GST-MPP1 PDZ domain fusion protein (55 Kd erythrocyte membrane protein AA101-186; PDZ domain 1 of 1) (UniProt P08515 1-218 = GST); assay: A/G assays
[22] = molecular target: GST-LIM PDZ domain fusion protein (Human LIM protein AA29-112; PDZ domain 1 of 1) (human, UniProt P08515 1-218 = GST); assay: A/G assays
[23] = molecular target: GST-DVL1 PDZ domain fusion protein (human dishevelled segment polarity protein homolog AA248-340); PDZ domain … (human, UniProt P08515 1-218 = GST); assay: A/G assays
[24] = molecular target: GST-AF6 PDZ domain fusion protein (af-6 protein AA985-1077; PDZ domain 1 of 1) (UniProt P08515 1-218 = GST); assay: A/G assays
[25] = molecular target: T15, GST-KIAA0559 PDZ domain fusion protein (KIAA0559 AA766-870; PDZ1 of 1) (UniProt P08515 1-218 = GST); assay: A/G assays
T15 construct: also called K559

[26] = molecular target: T5, GST-PSD95 PDZ domain fusion protein …; assay: A assay
[27] = molecular target: T12, GST-MPP2 PDZ domain fusion protein …; assay: G assay
[28] = molecular target: T1, GST-NeDLG PDZ domain fusion protein …; assay: A/G assays

T12 sequence (P08515 1-218, tags or fused parts left off): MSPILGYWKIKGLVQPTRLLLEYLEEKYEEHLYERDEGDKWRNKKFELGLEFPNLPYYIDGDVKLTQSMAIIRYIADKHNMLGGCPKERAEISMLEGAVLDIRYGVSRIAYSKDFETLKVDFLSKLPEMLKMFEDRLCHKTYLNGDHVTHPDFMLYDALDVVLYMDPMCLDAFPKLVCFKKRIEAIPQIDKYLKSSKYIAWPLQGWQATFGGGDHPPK
T13 sequence (P08515 1-218, tags or fused parts left off): as above
Sequence of GST-LIMK2 PDZ domain fusion protein (human LIM domain kinase 2 AA185-275; PDZ domain 1 of 1) (P08515 1-218, tags or fused parts left off): as above
Sequence of GST-MINT3 PDZ domain fusion protein (human MINT3 AA11-52; PDZ domain 1 of 1) (P08515 1-218, tags or fused parts left off): as above
T15 sequence (P08515 1-218, tags or fused parts left off): as above
Sequence of GST-prIL16 PDZ domain fusion protein (putative interleukin 16 precursor AA170-383; PDZ domains 1-2 of 2) (P08515 1-218, tags or fused parts left off): as above
Sequence of GST-LIM PDZ domain fusion protein (Human LIM protein AA29-112; PDZ domain 1 of 1) (P08515 1-218, tags or fused parts left off): as above
Sequence of GST-MPP1 PDZ domain fusion protein (55 Kd erythrocyte membrane protein AA101-186; PDZ domain 1 of 1) (P08515 1-218, tags or fused parts left off): as above
T3 sequence (P08515 1-218, tags or fused parts left off): as above
T14 sequence (P08515 1-218, tags or fused parts left off): as above
T5 sequence (P08515 1-218, tags or fused parts left off): as above
T11 sequence (P08515 1-218, tags or fused parts left off): as above
T9 sequence (P08515 1-218, tags or fused parts left off): as above
T4 sequence (P08515 1-218, tags or fused parts left off): as above
T7 sequence (P08515 1-218, tags or fused parts left off): as above
Sequence of GST-PTN-4 PDZ domain fusion protein (protein-tyrosine phosphatase meg1 AA774-862; PDZ domain 1 of 1) (P08515 1-218, tags or fused parts left off): as above
T8 sequence (P08515 1-218, tags or fused parts left off): as above
Sequence of GST-DVL1 PDZ domain fusion protein (human dishevelled segment polarity protein homolog AA248-340); PDZ domain … (P08515 1-218, tags or fused parts left off): as above
Sequence of GST-AF6 PDZ domain fusion protein (af-6 protein AA985-1077; PDZ domain 1 of 1) (P08515 1-218, tags or fused parts left off): as above
T6 sequence (P08515 1-218, tags or fused parts left off): as above
T2 sequence (P08515 1-218, tags or fused parts left off): as above

Row | Binder | binding result [2] | binding result [3] | binding result [4] | binding result [5] | binding result [6] | binding result [8] | binding result [9] | binding result [10] | binding result [11] | binding result [12] | binding result [13] | binding result [14] | binding result [15] | binding result [17] | binding result [18] | binding result [19] | binding result [20] | binding result [21] | binding result [22] | binding result [23] | also measured
1 | Biotin-ARHRVTSYTSSSVNVSSNL [CDW128A (IL8RA) C-terminal PL peptide AA29.1L, biotinylated] | no binding | no binding | no binding | no binding | no binding | no binding | no binding | no binding | no binding | no binding | no binding | no binding | no binding | no binding | no binding | no binding | no binding | no binding | no binding | no binding | binding result [1]: binds; binding result [7]: no binding; binding result [16]: no binding; binding result [24]: no binding; binding result [25]: no binding
2 | Biotin-VTSPNKHLGLVTPHKTELV [CD83 C-terminal PL peptide AA47L, biotinylated] | no binding | no binding | no binding | no binding | no binding | no binding | no binding | no binding | no binding | no binding | no binding | no binding | no binding | no binding | no binding | no binding | no binding | no binding | no binding | no binding | binding result [26]: binds; binding result [1]: binds; binding result [16]: no binding; binding result [24]: no binding; binding result [25]: no binding
3 | Biotin-ERLKLEPHEGLLLRFPYAA [CD98 (2F4) C-terminal PL peptide AA15L, biotinylated] | no binding | no binding | no binding | no binding | no binding | no binding | no binding | no binding | no binding | no binding | no binding | no binding | no binding | no binding | no binding | no binding | no binding | no binding | no binding | no binding | binding result [27]: binds; binding result [7]: no binding; binding result [28]: no binding; binding result [24]: no binding; binding result [25]: no binding
